In the nanobody polyreactivity screen of Harvey et al. (2022):

Assay: yeast display, Sf9 membrane polyspecificity reagent, FACS + sequencing; frameworks hold sequencing errors
How it was run: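 A nanobody's polyreactivity label depends on the gate it was sorted from. Yeast display cells were stained with 10% biotinylated, detergent-solubilized Sf9 membrane reagent for 1 hour at 4 °C, enriched on streptavidin microbeads and sorted by FACS. The low and high (top ~1%) gates were set on anti-HA fluorescence for expression and streptavidin fluorescence for reagent binding.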

Sequence	polyreactivity (PSR sort gate)
QDQLVESGGGLVQAGGSLRLSCAASGRIFDLYAMGWYRQAPGKERELVATISTRGGRTYYADSVKGRFTISRDNAKNTVYLQMKRLKPEDTAVYYWNARYLGYGWFDYWGQGTQVTVSS	low polyreactivity
QDQLVESGGGLVQAGGSLRLSCAASGRIFGINAMGWYRQAPGKERELVAAISSGGSTYYADSVKGRFTISRDNAKNTVYLQMNILKPEDTAVYYCAKGPSWKYYSYTLDYWGKGTQVTVSS	low polyreactivity
QDQLVESGGGLVQAGGSLRLSCAASGRIFGPYTMGWYRQAPGKEREFVAAISRSGDSTYYADSVKGRFTISRDNAKNTVYLQMNSLKPEDSAVYYCAAKYGTRLSAYYYWGQGTLVTVSS	high polyreactivity
QDQLVESGGGLVQAGGSLRLSCAASGRIFNANTMGWYRQAPGKERELVARITWSGGGTYYADSVKGRFTISRDNAKNTVYLQMNCLKPEDTAVYYCAARLLIRYYYWGHGTQVTVSS	high polyreactivity
QDQLVESGGGLVQAGGSLRLSCAASGRIFPLYVMGWYRQAPGKERELVAAISRSGSRTYYADSVKGRFTISRDNAKNTVYLQMNSLKPEDTAVYYCAAVTDGTTRYDGDYWGQGTQVTVSS	high polyreactivity
QDQLVESGGGLVQAGGSLRLSCAASGRIFQANAMGWYRQAPGKERELVASISSGGSTNYADSVKGRFTISRDNAKNTVYLQMNRLKPEDTAVYYCAARHPSSAYWVGYYWYDYWGQGTQVTVSS	low polyreactivity
QDQLVESGGGLVQAGGSLRLSCAASGRIFRLNAMGWSRQAPWKERELVAAITRGGNTYYADSVKGRFTISRDNAKNTVYLQMNSLKPEDTAVYYCAATSSRVSGYRYDYWGQGTQVTVSS	high polyreactivity
QDQLVESGGGLVQAGGSLRLSCAASGRIFTRYAMGWYRQAPGKEREFVAAISVRGGTTYYADSVKGRFTISRDNAKNTVYLQMNSLKPEDSAVYYCAARKISKYDYWGQGTQVTVSS	high polyreactivity
QDQLVESGGGLVQAGGSLRLSCAASGRIFYTNAMGWYRQAPGKERQLVATISSTGSTNYADSVKGRFTISRDNAKNTVYLQMNSLKPEDTAVYYCATQVGWRTYSHRNRGYYYWGQGTQVTVSS	high polyreactivity
QDQLVESGGGLVQAGGSLRLSCAASGRIFYTNAMGWYRQAPGQERDLVAVISWGGDTTYYADSVKGRFTISRDNAKNTVYLQMNSLKPEDTAVYYCNGDWGPTYEIYDSWGQGTQVTVSS	low polyreactivity
QDQLVESGGGLVQAGGSLRLSCAASGRIFYVYAMGWYRQAPGKEREFVASISWSGGSTYYADSVKGRFTISRDNAKNTFYLQLNSLKPEDTSVYYCNARAFTHRYDYWGQGTQVTVSS	low polyreactivity
QDQLVESGGGLVQAGGSLRLSCAASGRIFYYNAIGWYRQAPGKEMELVATITRAGGTYYADSVKGRFTISRDNAKNTVYLQMNSLKPEDTAVYYCAKRHPIVDDYKGDYWGQGTQVTVSS	low polyreactivity
QDQLVESGGGLVQAGGSLRLSCAASGRIISANAMGWYRQAPGKERELVATISTGGGRTYYADSVKGRFTISRDNAKNTVYLQMNSLKPEDTAVYYCNATRNYARVRYYYWGQGTQVTVSS	high polyreactivity
QDQLVESGGGLVQAGGSLRLSCAASGRTFADYAMGWYRQAPGKERELVAAISWRGGSTYYADSVKGRFTISRDNAKNTVYLQLNSLNPEDTAVYYCNKAYPADYDYWGQGTQVTVSS	low polyreactivity
QDQLVESGGGLVQAGGSLRLSCAASGRTFDTNAMGWYRQAPGKERELVASISWSTGSTYYADSVKGRFTISRDNAKNTVYLQMNSLKPEDTAVYYCAARKWFRYKGRSRDYWGQGTQVTVSS	high polyreactivity
QDQLVESGGGLVQAGGSLRLSCAASGRTFGPNAMGWYRQAPGKERELVAAITGGGSTYYADSVKGRFTISRDNAKNTVYLQMNSLKPEDTAVYYCSNRGQGFHFGRDYWGQGTQVTVSS	low polyreactivity
QDQLVESGGGLVQAGGSLRLSCAASGRTFGPYAMGWYRQAPGKEREFVAAITWRGGRTNYADSVKGRFTISRDNAKNTVYLQMNSLKPEDTAVYYCNAVISPHQWIRGGDSWGQGTQVTVSS	low polyreactivity
QDQLVESGGGLVQAGGSLRLSCAASGRTFKRYAMGWYRQAPGKERELVAAITFSGGSTYYADSVKGRFTISRDNAKNTVYLQMNSLKPEDTAVYYCAAGYRWTGGLKYDFWGQGTQVTVSS	high polyreactivity
QDQLVESGGGLVQAGGSLRLSCAASGRTFNPYAMGSYRQAPGKERELVAAIRWRGTRTYYADSVKGRFTISRDNAKNTVYLQMNSLKPEDTAVYYCAADDPHSREMDYWGQGTQVTVSS	high polyreactivity
QDQLVESGGGLVQAGGSLRLSCAASGRTFRAYAMGWSRQAPGKERELVASISRRGGSTYYADSVKGRFTISRDNAKNTDYLQMNSLNPEDTAVYYCAASDKYLQYDDWGQGTEVTVSS	high polyreactivity
QDQLVESGGGLVQAGGSLRLSCAASGRTFRRNAMGWYRQAPGKERELVAAITWRGTSTYYADSVKGRFTISRDNAKNTVYLQMNSLKPEDTAVYYCAAVVKDSRPYQAYVGSIHRDYWGQGTQVTVSS	high polyreactivity
QDQLVESGGGLVQAGGSLRLSCAASGRTFWRYALGWYRQAPGKEREMVAAISSGGITYYADSVKGRFTISRDNAKNTVYLQMNSLKPEDTAVYYCARYGPYESSYHYDYWGQGTQVTVSS	high polyreactivity

Sequence	polyreactivity (PSR sort gate)
QDQLVESGGGLVQAGGSLRLSCAASGRTLYYYTMGWYRQAPGKERELVAAITWSGGSTYADSVKGRFTISRDNAKNTVYLQMNSLKPEDTAVYYCAAVRTSRFDYWGQGTQVTVSS	high polyreactivity
QDQLVESGGGLVQAGGSLRLSCAASGRTYASNAMGWYRQAPGKERELVAAITYSGSSTYYADSVKGRFTISRDNAKNTVYLQMNSLKPEDTAVYYCGKGGRRWTYKTWKGYDYWGQGTQVTVSS	high polyreactivity
QDQLVESGGGLVQAGGSLRLSCAASGSIFGPYAMGWYRQAPGKERELVAAITYRGDSTYYADSVKGRFTISRDYAKNTVYLQMNSLKPEDTAVYYCAAEYIYDLWEEYWGQGTQVTVSS	high polyreactivity
QDQLVESGGGLVQAGGSLRLSCAASGSIFGYNDMGWYRQAPGKERELVATITWGGGRTRYADSVKGRFTSSRDNAKNTVYLHMNSLKPEVTAVYYCAADVLRISTLLFRGPGFDSWGQGTQVTVSS	low polyreactivity
QDQLVESGGGLVQAGGSLRLSCAASGSIFPVYDMGWSRQAPGTEREMVAAISVSGGSTYYADSVKGRFTISRDNAKNTVYLQMKSLKPEDTAVYYCIADVHLYWYWYYEREDYWGQGTQVTVSS	low polyreactivity
QDQLVESGGGLVQAGGSLRLSCAASGSIFRPNAMGWYRQAHGKERELVAAITYSTGSTYYADSVKGRFTISRDNAKNTVYLQMNSLKPEDTAVYYCAARFWRWLFPFDYLGQGTQVTVSS	high polyreactivity
QDQLVESGGGLVQAGGSLRLSCAASGSIFRTYAMGWYRQAPGKERELVATITYSDGNTYYADSVKGRFTISRDNAKNTVYLQMNSLKPEDTAFYYSNADGIYASISGYRYDYWGQGTLVTVSS	low polyreactivity
QDQLVESGGGLVQAGGSLRLSCAASGSIFRYYVRGWYREAPGKERELVAAISKSGGSTYYADSVKGRFTISRDNAKNTVYLQMNSLKPEDTAVYYCAAGNTRGGDFNYWGQGTQVTVSS	high polyreactivity
QDQLVESGGGLVQAGGSLRLSCAASGSIFSKNTMGWYRQAPGKERELVAAISGSGVSTYYADSVKGRFTISRDNAKNTVYLQMNSLKPEDTAVYYCAAGPRFRYYSGWYDYWGQGTQVTVSS	high polyreactivity
QDQLVESGGGLVQAGGSLRLSCAASGSIFSNYAMGWYRQAPGKERELVATITSAGSTYYADSVKGRFTISRDNAKNTVYLQLNSLKPEDTAVYYCAALYLGSYDYYDDMDYWGQGTQVTVSS	low polyreactivity
QDQLVESGGGLVQAGGSLRLSCAASGSIFSSNAMGWYRQAPGKERELVAAINKSGGRTYYADSVKGRFTISRDNAKNTVYLQMNSLKPEDTAVYYCNKYGLASGLDYWGQGTQVTVSS	high polyreactivity
QDQLVESGGGLVQAGGSLRLSCAASGSIFTSNAMGWYRQAPGKERELVAVITGSTGRTHYADSVKGRFTISRDNAKNTVYLQMNSLKPEDTAVYYCAAGLTFVTNFDYWGQGTQVTVSS	low polyreactivity
QDQLVESGGGLVQAGGSLRLSCAASGSIFYWYAMGWYRQAPGKERELVAAISKSGGSTYYADSVKGRFTISRDTAKNTVYLQMNSLKPEDTAVYYCAARYLYQGYRFDYWGQGTQVTVSS	high polyreactivity
QDQLVESGGGLVQAGGSLRLSCAASGSNFVINAMGWYRQAPGKERELVAAISYSGTGTYYADSVKGRFTISRDNAKNTVYLQMNSLKPEDTAVYYCAGDYYYRYRIYDYWGQGTQVTVSS	low polyreactivity
QDQLVESGGGLVQAGGSLRLSCAASGSTFNAYAMGWYRQAPGKERELVADISISGGTYYADSVKGRFTISRDNAKNTVYLQMNSLKPEDTAVYYCAAKPSWHGVYYWGQGTQVTVSS	low polyreactivity
QDQLVESGGGLVQAGGSLRLSCAASGSTFRWYAMGWYRQAPGKERELVAAIRRIGSRTYADSVKGRFTISRDNAKNTVYLQMNSLKPEDTAVYYCATRYKYTGYDYWGQGTQVTVTS	high polyreactivity
QDQLVESGGGLVQAGGSLRLSCAASGSTFSNYAMGWYRQAPGKERELVASISQSGGSTYYADSVKGRFTISRDNAKNTVYLQMNSLKPEDTAVYYCAADVAQVGYQVGVSEIYPGYEYWGQGTQVTVSS	low polyreactivity
QDQLVESGGGLVQAGGSLRLSCAASGSTFSVYAMGWYRRAPGKERELVATIRGRGGSTSYADSVKGRFTISRDNAKNTVYLQMNSLKPEDTAVYYCAARVVRDWASKRIILALSNYVYWGQGTHVTVSS	high polyreactivity
QDQLVESGGGLVQAGGSLRLSCAASGSTFTTNVMGWYRQAPGKERELVAAISWSSGSTYYADSVKGRFTISRDNAKNTDYLQMNSLKPEDTAVYYCAARLVIFYPYSRYYYWGQGTQVTVSS	high polyreactivity
QDQLVESGGGLVQAGGSLRLSCAASGSTFTYNTKGWYRQAPGKERELVAAITTSGGNTYYADSVKGRFTISRDNAKNTVYLQMNSLKPVDTAVYYCAAGYSWAEGDYWGQGTQVTVSS	low polyreactivity
QDQLVESGGGLVQAGGSLRLSCAASGSTFVENAMGWYRQAPGKERELVAAISSSGDSTFYADSVKGRFTISRDNAKNTVYLQMNSLKPEDTAVYYCNTPLLKRTTRGRERNYWGQGTQVTVSS	low polyreactivity
